From US20160152733A1
Substitutions are numbered along the chain they refer to. Values belong to the binder of their own block, whether it stands above or below them.

Legend:
[1] = molecular target: human CD45R0 antigen (splice variant/isoform CD45R0 of CD45 antigen, PTPRC), cell-bound (human) (UniProt P08575); experiment: flow cytometry on human PBMC, from max. MFI; muCD45R0 set to 100%
[2] = molecular target: human CD45R0 antigen (splice variant/isoform CD45R0 of CD45 antigen, PTPRC), cell-bound (human) (UniProt P08575); experiment: flow cytometry, indirect staining of human PBMC, Fab 1-10 µg/mL + anti-His-PE
[3] = molecular target: human CD45R0 antigen (splice variant/isoform CD45R0 of CD45 antigen, PTPRC), cell-bound (human) (UniProt P08575); experiment: flow cytometry on human PBMC, from median fluorescence at 5 µg/mL; muCD45R0 set to 100%
[4] = molecular target: human CD45R0 antigen (splice variant/isoform CD45R0 of CD45 antigen, PTPRC), cell-bound (human) (UniProt P08575); experiment: flow cytometry, human PBMC gated on living CD45RA-negative WBC, Fab 5 µg/mL + anti-His-PE
[5] = molecular target: human CD45R0 antigen (splice variant/isoform CD45R0 of CD45 antigen, PTPRC), cell-bound (human) (UniProt P08575); experiment: flow cytometry on human T cells, from median fluorescence at 5 µg/mL; muCD45R0 set to 100%
[6] = molecular target: human CD45R0 antigen (splice variant/isoform CD45R0 of CD45 antigen, PTPRC), cell-bound (human) (UniProt P08575); experiment: flow cytometry, biotinylated Fab 5 µg/mL on human CD3+ CD45RA- T cells, donor 1 (text: anti-Biotin-PE; table head: anti-HIS-PE)
[7] = molecular target: human CD45R0 antigen (splice variant/isoform CD45R0 of CD45 antigen, PTPRC), cell-bound (human) (UniProt P08575); experiment: flow cytometry, biotinylated Fab 5 µg/mL on human CD3+ CD45RA- T cells, donor 2 (text: anti-Biotin-PE; table head: anti-HIS-PE)
[8] = molecular target: human CD45R0 antigen (splice variant/isoform CD45R0 of CD45 antigen, PTPRC), cell-bound (human) (UniProt P08575); experiment: flow cytometry on human PBMC, from median fluorescence at 5 µg/mL; relative to muCD45R0 = 100%
[9] = molecular target: human CD45R0 antigen (splice variant/isoform CD45R0 of CD45 antigen, PTPRC), cell-bound (human) (UniProt P08575); experiment: flow cytometry on human PBMC, from max. MFI; relative to muCD45R0 = 100%

B3: Fab variant "huCD45R0_v1" (humanized, 4D5 framework with backmutations) (Fab, V domains shown, not shown: small tags and cut ends)
VH: EVQLVESGGGLVQPGGSLRLSCAFSGFSLTTYGIGVGWIRQAPGKGLEWLTHIWWNDNKYYADSVKGRFTISKDSSKNTVYLQMNSLRAEDTAVYYCLYGYTYWGQGTLVTVSS
VL: DIQMTQSPSSLSASVGDRVTITCRSSQSLLYSNGNTYLHWYQQKPGKAPKLLIYKLSNRFSGVPSRFSGSRSGTDFTLTISSLQPEDFATYYCSQSTHVPWTFGQGTKVEIKR
relative affinity (%) [9]: 8%
max. mean fluorescence (anti-HIS-PE) [2]: 3

B4: Fab variant "huCD45R0_v2" (humanized, 4D5 framework with extended backmutations) (Fab, V domains shown, not shown: small tags and cut ends)
VH: B3 VH with E1Q, V2I, K66R
VL: B3 VL with I2V, Q3V, S7T, T22S, S65D, R71G
median fluorescence (anti-HIS PE) [4]: 8
relative affinity (%) [8]: 31%

Second part, the binder after the results:

relative affinity (%) [1]: 100%
max. mean fluorescence (anti-HIS-PE) [2]: 37
relative affinity (%) [3]: 100%
median fluorescence (anti-HIS PE) [4]: 26
relative affinity (%) [5]: 100%
median fluorescence, donor 1 [6]: 8
median fluorescence, donor 2 [7]: 21
B1: Fab variant "muCD45R0" (chimeric Fab: variable regions of parental murine CD45R0 antibody clone UCHL1, human constant regions) (Fab, V domains shown, not shown: small tags and cut ends)
VH: QITLKESGPGILQPSQTLSLTCSFSGFSLTTYGIGVGWIRQPPGKGLEWLTHIWWNDNKYYNTALRSRLTISKDSSNNQVLLKIANVDTADTATYYCLYGYTYWGQGTLVTVSA
VL: DVVMTQTPLSLPVSLGDQASISCRSSQSLLYSNGNTYLHWYLQKPGQSPKLLIYKLSNRFSGVPDRFSGSGSGTDFTLKISRVEAEDLGVYFCSQSTHVPWTFGGGTKLEIKR

median fluorescence (anti-HIS PE) [4]: 43
relative affinity (%) [8]: 165%
median fluorescence, donor 1 [6]: 9.5
median fluorescence, donor 2 [7]: 24
B2: Fab variant "huCD45R0_v3" (humanized, germline IGHV2-5*01 / IGKV2-30*01 framework with backmutations) (Fab, V domains shown, not shown: small tags and cut ends)
VH: QITLKESGPTLVKPTQTLTLTCTFSGFSLTTYGIGVGWIRQPPGKALEWLTHIWWNDNKYYSPSLKSRLTITKDSSKNQVVLTMTNMDPVDTATYYCLYGYTYWGQGTLVTVSA
VL: B1 VL with S14T, D17Q, Q18P, L42Q, K44R, K50R, L88V, F92Y
